This is an account of results in patent US20080279865A1, “Therapy of Prostate Cancer With Ctla-4 Antibodies and Hormonal Therapy” (Pfizer, Inc., Pfizer Products, Inc., priority 2005, published 2008).

Series [1] is described as follows: Single agent studies of ticilimumab in melanoma (diarrhea). The format is in vivo, human. An excerpt:
In contrast, in the present study, 2 out of 3 patients treated with the combination of hormonal therapy and CTLA4 blockade had grade 3 diarrhea. […] Diarrhea is considered to be pharmacologically mediated in that it is likely related to the mechanism of action of ticilimumab. […] A possible correlation between tumor response in melanoma and putative “autoimmune breakthrough events” has been reported for single agent CTLA4 blockade in the absence of any other therapy (see Attia et al., J Clin Oncol. 23(25):6043-6053 (2005)).

Series [2] deals with prostate cancer. Description: Neoadjuvant ticilimumab plus leuprolide and bicalutamide before prostatectomy in high risk prostate cancer. Type of series: in vivo, human. An excerpt: Patients with prostate cancer who are eligible for radical prostatectomy and who have an intermediate or high risk of recurrence according to current medical standards are candidates for antibody-hormonal combination neoadjuvant therapy. The target population for this study is defined using the risk of biochemical recurrence instead of the probability of pathologically confined cancer. This approach is supported by the observation that patients with disease confined to the prostate may have a biochemical recurrence despite “definitive” local treatment. Therefore, this patient definition is more comprehensive. Considering recent data showing that a time to PSA failure of less than 2 years predicts for distant failure, patients who are at high risk for early PSA failure are candidates for neoadjuvant (and adjuvant) antibody-hormonal combination therapy as disclosed herein.
Pre-operatively, approximately after the end of the last cycle of antibody-hormone combination therapy and prior to scheduled prostatectomy, the following evaluations are completed: any adverse events, ECOG PS, vital signs and weight, physical examination (including signs of autoimmunity), ECG, and DRE. Samples for hematology and chemistry panels, along with PT, APTT, CRP and PSA are obtained.
Post-operative assessments are performed approximately two weeks following surgery. The evaluation includes physical examination (including autoimmunity), vital signs, ECOG performance status, body weight, hematology, and chemistry panels, PT, APTT, TSH, T3, T4, amylase, lipase, CRP, urinalysis. Additional samples are obtained for autoantibody panel, PSA, testosterone, HAH titer and PK. All patients are assessed for pathological assessment of the surgical specimen and adverse events.
The patient is premedicated with antihistamine (H1) at least one half hour prior to infusion of anti-CTLA4, but premedication is not required. Patients were administered leuprolide (LUPRON) and bicalutamide (CASODEX) in combination with an anti-CTLA4 antibody (ticilimumab). More specifically, on day 1 (D1), the patient was administered a single IV infusion (100 mL/hr) of anti-CTLA4 antibody at a dose of 1 mg/kg, 3 mg/kg, or 6 mg/kg, in combination with a 7.5 mg IM injection of leuprolide (LUPRON DEPOT). A minimum of 3 patients were administered each antibody dose. The study was amended to reinitiate dose escalation at a lower dose level, i.e., 1 mg/kg. Three patients received that dose level, and are undergoing surgery (after 3 months of combination therapy). Dose escalation continued to 3 mg/kg. Dose escalation is ongoing at 6 mg/kg and 10 mg/kg.
Bicalutamide (CASODEX) was administered orally, in tablet form, at a dose of 50 mg, once per day for the first fourteen days commencing on day 1 (D1). Preferably, bicalutamide was taken at the same time each day on days D1-D14, and a patient medication diary was used to record any interruption of bicalutamide dosing.
Prophylactic anti-emetics and anti-diarrheals were given as appropriate. The treatment was repeated after 28 days with a […] of antibody and 7.5 mg IM injection of LUPRON DEPOT for a maximum of three cycles (D1, D28, and D56) preceding surgery.

For “ticilimumab: human IgG2 anti-CTLA4 antibody; heavy chain SEQ ID NO:26, light chain SEQ ID NO:32”, the patients with diarrhea entry in series [1] (multiple doses of 6 mg/kg) is recorded as “none”. The “patients with diarrhea grade 3” value in series [1] (single dose of 6 mg/kg) is reported as 1 out of three. The “diarrhea in a patient” value in series [2] (3 mg/kg ticilimumab and hormonal therapy) is “prolonged diarrhea”. Also, in series [2] (6 mg/kg, patient 1005-1004, after three months of antibody therapy and hormonal therapy (leuprolide and bicalutamide), FIG. 4), the prostatectomy specimen findings entry was “detectable tumor regression and signs of an inflammatory infiltrate around tumor cells”. Moreover, the “patients who experienced diarrhea and did not complete the study” value in series [2] (cohort of three patients at 6 mg/kg with hormonal therapy) is “two”. Moreover, in series [2] (combination of hormonal therapy and CTLA4 blockade), the “severity (duration and magnitude) of the diarrhea versus any other study at any dose level” value is “significantly higher”. In addition, the “patients with grade 3 diarrhea” value in series [2] (combination of hormonal therapy and CTLA4 blockade, cohort of three patients at 6 mg/kg) is listed as 2 out of 3. For the same substance, the “treatment effect in prostatectomy specimens” value in series [2] (several patients treated with 1 mg/kg and 6 mg/kg, with androgen blockade) was “regression of carcinoma and benign prostate glandular tissue, lymphocytic infiltrates (see FIG. 4), and signs of acute and chronic inflammation”.
